Legend:
PTPRG on U266 cells = target: T1, PTPRG on U266 cells (human, UniProt P23470); assay: flow cytometry, IgG1 on U266 cells
T1 construct: endogenous on U266 multiple myeloma cells; also called HW-1 target on U266
Protocol: Staining protocol. Cells were harvested (5×10⁴ cells per sample), washed once with phosphate-buffered saline (PBS) at RT, and a second time with ice-cold FACS buffer (PBS, 0.5% BSA, 2 mM EDTA, 0.1% NaN₃). Cells were stained in 50 μL of primary antibody for 30 min on ice, washed twice with 100 μL FACS buffer, stained with 50 μL of diluted secondary antibody, washed two more times in FACS, and then resuspended in 50 μL FACS buffer. Samples were acquired on an Accuri C6 Plus or a BD FACSCanto II flow cytometer (both from BD Biosciences). Data were analyzed using FlowJo version 10 software. Primary antibodies: Fab (10 μg/mL), IgG1 (0.1 to 50 μg/mL), or 25 μL polyclonal Fabs from periplasmic extracts. Polyclonal Fabs were produced by diluting bacterial stocks by a factor of 100 in autoinduction media and incubating overnight to induce expression as previously described. […] Viability stains: DAPI (Cell Signaling Technology) or SYTOX AADvanced Dead Cell Stain (Thermo Fisher Scientific). Labeling: The panel of chimeric rabbit/human IgG1s was labeled using the Alexa Fluor 647 Labeling Kit (Thermo Fisher Scientific, #A20173) to facilitate single-step staining. Competition: Unlabeled IgG1s were added at saturating concentrations of 60 μg/mL to block the target receptors, incubating on ice for 30 min, followed by the addition of an equal volume of the Alexa Fluor 647 labeled antibody at 2 μg/mL, and the mixture was incubated on ice for another 30 min.

HHLA2 (B7-H7) = target: T2, HHLA2 (B7-H7); assay: ELISA on coated HHLA2-Fc, 150 ng IgG1; None 0.087
T2 construct: coated protein in the ELISA; also called HHLA2-Fc (R&D Systems)
T2 chain: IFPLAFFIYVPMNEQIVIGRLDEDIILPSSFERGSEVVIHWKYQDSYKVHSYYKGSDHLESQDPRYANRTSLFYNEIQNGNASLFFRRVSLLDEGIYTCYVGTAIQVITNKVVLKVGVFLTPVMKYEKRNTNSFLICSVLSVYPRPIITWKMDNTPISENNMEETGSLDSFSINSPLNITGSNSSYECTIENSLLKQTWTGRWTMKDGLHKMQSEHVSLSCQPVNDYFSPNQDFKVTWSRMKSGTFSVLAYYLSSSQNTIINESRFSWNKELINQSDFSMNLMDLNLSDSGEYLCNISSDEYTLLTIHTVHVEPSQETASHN
Protocol: Recombinant purified ECDs (50-150 ng) of each putative target protein were coated, incubated with 150 ng of the indicated primary antibody, and binding was detected using a peroxidase-conjugated anti-human Fab secondary antibody. Heatmap represents averages of technical triplicates. (8B) Target validation via siRNA knockdown. H929 cells were transfected with siRNA pools targeting the putative antibody targets ICAM1, CADM1, and PTPRG. Cells were then subjected to cognate IgG binding analysis via flow cytometry. (NT, non-targeting siRNA).
ELISA ELISA was conducted as described previously. Briefly, 50-150 ng of antigen was coated overnight in half-area 96-well plates at 4° C., blocked with 3% BSA at 37° C. for 1 h, and 150 ng of chimeric rabbit/human IgG1 was added, incubating for 2 h at 37° C. […] After incubating at 37° C. for 15 min-1 h (depending on intensity of controls), data were acquired using a SpectraMax M5 plate reader (Molecular Devices).

[1] = target: T3, PTPRG, endogenous in H929 multiple myeloma cells (human, UniProt P23470 20-1445); assay: flow cytometry, H929 + NT Green siRNA; None 416
T3 construct: Native protein on H929 cells (flow cytometry, siRNA knockdown) and in H929 lysates (IP/MS); also called phosphatase receptor type γ
T3 sequence (P23470 20-1445 limits assumed): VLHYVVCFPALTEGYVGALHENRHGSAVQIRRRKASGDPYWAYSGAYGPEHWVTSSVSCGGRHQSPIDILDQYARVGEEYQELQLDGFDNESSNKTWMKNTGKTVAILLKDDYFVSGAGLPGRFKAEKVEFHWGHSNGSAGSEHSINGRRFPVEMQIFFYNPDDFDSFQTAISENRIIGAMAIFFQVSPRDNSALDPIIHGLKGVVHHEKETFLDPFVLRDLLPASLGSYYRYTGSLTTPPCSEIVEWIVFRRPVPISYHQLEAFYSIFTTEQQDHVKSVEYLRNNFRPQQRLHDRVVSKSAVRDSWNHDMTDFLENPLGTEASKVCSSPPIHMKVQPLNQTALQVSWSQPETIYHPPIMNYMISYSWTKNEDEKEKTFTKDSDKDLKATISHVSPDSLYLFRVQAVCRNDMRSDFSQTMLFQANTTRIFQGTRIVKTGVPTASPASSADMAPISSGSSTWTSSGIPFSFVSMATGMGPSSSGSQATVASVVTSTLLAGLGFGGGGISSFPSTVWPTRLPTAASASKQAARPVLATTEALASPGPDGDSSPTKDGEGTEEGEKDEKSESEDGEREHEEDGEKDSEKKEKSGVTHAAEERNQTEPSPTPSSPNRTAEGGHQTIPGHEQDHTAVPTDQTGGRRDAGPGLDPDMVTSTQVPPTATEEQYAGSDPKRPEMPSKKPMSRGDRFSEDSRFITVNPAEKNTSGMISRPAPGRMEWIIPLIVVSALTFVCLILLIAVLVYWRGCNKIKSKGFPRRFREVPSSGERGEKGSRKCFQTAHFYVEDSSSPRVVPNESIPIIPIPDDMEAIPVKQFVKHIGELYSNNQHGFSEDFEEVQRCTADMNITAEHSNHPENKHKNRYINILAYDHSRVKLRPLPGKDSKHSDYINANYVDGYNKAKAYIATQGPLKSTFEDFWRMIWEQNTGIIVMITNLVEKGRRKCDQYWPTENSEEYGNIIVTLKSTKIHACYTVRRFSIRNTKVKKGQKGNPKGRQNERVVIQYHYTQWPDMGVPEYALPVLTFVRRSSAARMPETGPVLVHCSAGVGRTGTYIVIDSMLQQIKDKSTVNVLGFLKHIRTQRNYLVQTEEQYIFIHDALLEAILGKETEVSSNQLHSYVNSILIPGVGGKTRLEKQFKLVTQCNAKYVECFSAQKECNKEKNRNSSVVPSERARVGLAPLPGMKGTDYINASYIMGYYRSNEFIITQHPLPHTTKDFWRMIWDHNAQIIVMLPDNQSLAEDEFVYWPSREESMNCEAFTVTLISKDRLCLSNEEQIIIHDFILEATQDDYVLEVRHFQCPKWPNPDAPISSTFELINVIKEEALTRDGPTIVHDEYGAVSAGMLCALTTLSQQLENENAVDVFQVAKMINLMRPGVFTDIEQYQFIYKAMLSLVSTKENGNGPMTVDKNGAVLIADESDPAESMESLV

[2] = target: T4, GARS, endogenous in H929 multiple myeloma cells (human, UniProt P41250 37-739, limits assumed); assay: flow cytometry, H929 + NT Green siRNA; None 1.35; surface target GARS putative
T4 construct: Native protein pulled down from H929 lysates; also called Glycyl-tRNA synthetase; GlyRS
T4 sequence: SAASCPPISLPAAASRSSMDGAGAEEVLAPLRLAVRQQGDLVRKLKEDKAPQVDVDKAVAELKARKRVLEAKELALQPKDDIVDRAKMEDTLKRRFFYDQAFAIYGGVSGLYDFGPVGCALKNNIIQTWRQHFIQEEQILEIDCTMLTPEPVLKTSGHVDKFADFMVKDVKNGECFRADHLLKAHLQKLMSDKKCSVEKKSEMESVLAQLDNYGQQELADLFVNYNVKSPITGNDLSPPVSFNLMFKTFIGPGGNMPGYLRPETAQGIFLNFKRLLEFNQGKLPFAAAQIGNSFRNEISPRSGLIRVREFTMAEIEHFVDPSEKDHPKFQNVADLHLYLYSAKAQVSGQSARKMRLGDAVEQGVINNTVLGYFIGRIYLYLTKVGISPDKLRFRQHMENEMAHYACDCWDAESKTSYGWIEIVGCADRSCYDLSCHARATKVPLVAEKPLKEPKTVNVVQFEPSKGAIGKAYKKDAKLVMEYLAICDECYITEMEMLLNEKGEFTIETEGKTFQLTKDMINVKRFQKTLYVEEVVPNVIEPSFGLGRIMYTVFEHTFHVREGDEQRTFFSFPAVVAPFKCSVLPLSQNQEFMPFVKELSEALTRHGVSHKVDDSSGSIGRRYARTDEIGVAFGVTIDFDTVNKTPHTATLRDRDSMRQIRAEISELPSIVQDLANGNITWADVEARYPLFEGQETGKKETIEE

[3] = target: T4, GARS, endogenous in H929 multiple …; assay: flow cytometry, H929 + PTPRG siRNA; None 490; surface target GARS putative
[4] = target: T4, GARS, endogenous in H929 multiple …; assay: flow cytometry, H929 + NT Green siRNA; None 416; surface target GARS putative
[5] = target: T4, GARS, endogenous in H929 multiple …; assay: flow cytometry, H929 + CADM1 siRNA; None 449; surface target GARS putative

T1 sequence (P23470 20-1445 limits assumed): as the sequence (P23470 20-1445 limits assumed) above

B1: HW-42 chimeric rabbit-human IgG1 LA/LA/PG (antibody, V domains shown)
VH: QSVKESEGGLFKPADTLTLTCTVSGFSLSSNEISWVRQAPGEGLEYIGIIDTGGRAYYAVWARSRSTITRNTNLNTVTLKMTSLTAADTATYFCARGGVDTEWYAFSSWGPGTLVTVPS
VL: SFVLTQPASVQVNLGQTVSLTCTADTLSRRYASWYQQKPGQAPVLLIFRDTSRPSGVPDRFSGSSSGDTATLTISGAQAGDEADYYCATSDGSGSNYQYVFGGGTQLTVTG
notes: Fc-silenced (L234A/L235A/P329G) IgG1, lambda; Alexa Fluor 647-labeled in single-step flow cytometry; Cluster C-1
antibody-bound positive cells (%) (PTPRG on U266 cells): 64.5% | ELISA Absorbance (405 nm-570 nm) (HHLA2 (B7-H7)): 0.097 | mAb binding (MFI) [1]: 8410

B2: HW-17 chimeric rabbit-human IgG1 LA/LA/PG (antibody, V domains shown)
VH: QSLGESRGRLVTPDETLTLTCTVSGIDLSSNAMSWVRQAPGEGLEWIGTINTGGRAYYASWAKGRFTISRTSTTVDLKMTSLTTEDTATYFCARERYSDGRAYDIWGPGTLVTISS
VL: SFVLTQPASVQVNLGQTVSLTCTADTLSRRYASWYQQKPGQAPVLLIYTDSNRPSGIPDRFSGSSSGNTATLTISGAQAGDEADYYCATDDGSGSIYQYVFGGGTQLTVTG
notes: as for B1
antibody-bound positive cells (%) (PTPRG on U266 cells): 85.2% | ELISA Absorbance (405 nm-570 nm) (HHLA2 (B7-H7)): 0.076 | mAb binding (MFI) [1]: 18600

B3: HW-113 chimeric rabbit-human IgG1 LA/LA/PG (antibody, V domains shown)
VH: QKQLVESGGGLVQPGGSLTLTCTVSGFSLNKYYMGWFRQAPGKGLEWIGVISRSGDTYYSSWAKGRFTISKASTTVDLRITSPTTEDTATYFCARDASSPGFHGDRLDLWGQGTLVTVSS
VL: SFVLTQPASVQVNLGQTVSLTCTADTLSRSYASWYQQKPGQAPVLLIYRDTSRPSGVPDRFSGSSSGNTATLTISGAQAGDEADYYCATSDGIGSNYLWVFGGGTQLTVTG
notes: Fc-silenced (L234A/L235A/P329G) IgG1, lambda; Alexa Fluor 647-labeled in single-step flow cytometry
ELISA Absorbance (405 nm-570 nm) (HHLA2 (B7-H7)): 0.071

B4: HW-97 chimeric rabbit-human IgG1 LA/LA/PG (antibody, V domains shown)
VH: QKQLVESGGRLVTPGTPLTLTCTVTGIDLSSHGMSWVRQAPGKGLEWIGVIYPSGSTWYASWARGRFTISKTSTTVDLKMTSLTTEDTATHFCARGDVGGADNNIWGPGTLVTVSS
VL: SFVLTQPASVQVDLGQTVSLTCTAETLSRSYASWYQQKPGQAPVLLIYRDTSRPSGVPDRFSGSSSGNTATLTISGAQAGDEADYYCATSDGSGSSYQYVFGGGTQLTVTG
notes: Fc-silenced (L234A/L235A/P329G) IgG1, lambda; Alexa Fluor 647-labeled in single-step flow cytometry; Prototype of cluster C-97
ELISA Absorbance (405 nm-570 nm) (HHLA2 (B7-H7)): 0.079

B5: HW-70 chimeric rabbit-human IgG1 LA/LA/PG (antibody, V domains shown)
VH: QSLEESGGRLVTPGTPLTLTCTVSGFSLSSNAMSWVRQAPGKGLEWIGTIDGYGYTYYASWAKGRFTVSKTSTTVDLKITSPTTEDTATYFCAREIYLGSNFWGPGTLVTISS
VL: SFVLTQPASVQVNLGQTVSLTCTADTLSRRYASWYQQKPGQAPVLLIYRDTSRPSGVPDRFSGSSSGNTATLTISGAQAGDEADYYCATADGSGSSYQFVFGGGTQLTVTG
notes: as for B1
antibody-bound positive cells (%) (PTPRG on U266 cells): 76% | ELISA Absorbance (405 nm-570 nm) (HHLA2 (B7-H7)): 0.088 | mAb binding (MFI) [1]: 12600

B6: HW-45 chimeric rabbit-human IgG1 LA/LA/PG (antibody, V domains shown)
VH: QKQLVESGGRLVTPGTPLTLTCTVSGFSLSSYAMGWFRQAPGKGLEWIGIINSYGSTYYASWAKGRFTISKTSTTVDLKITSPTTEDTATYFCGRRIGSARFDPWGPGTLVTVSS
VL: SFVLTQPASVQVNLGQTVSLTCTADTLSRSYASWYQQKPGQAPVLLIYRDTRRPSGVPDRFSGSSSGNTATLTISGAQAGDEADYYCATSDGSGSSYRLVFGGGTQLTVTG
notes: Fc-silenced (L234A/L235A/P329G) IgG1, lambda; Alexa Fluor 647-labeled in single-step flow cytometry; Prototype of cluster C-45
Cells stained (%) [2]: 97.9% | mAb binding (MFI) [3]: 23200 | mAb binding (MFI) [4]: 29500 | mAb binding (MFI) [5]: 33400

B7: HW-25 chimeric rabbit-human IgG1 LA/LA/PG (antibody, V domains shown)
VH: QSLEESGGRLVTPGTPLTLTCTVSGFSLSSYAMGWVRQAPGKGLEWIGIIDSRGSTYYATWAKGRFTISKTSTTVDLKITSPTTEDTATYFCAREDSYYYDSFNLWGPGTLVTVSS
VL: SFVLTQPASVQVNLGQTVSLTCTADTLSRRYASWYQQKPGQAPVLLIYRDTSRPSGVPDRFSGSSSGNTATLTISGAQAGDEADYYCATSDGSGSSYQCVFGGGTQLTVTG
notes: as for B1
antibody-bound positive cells (%) (PTPRG on U266 cells): 69.6% | ELISA Absorbance (405 nm-570 nm) (HHLA2 (B7-H7)): 0.066 | mAb binding (MFI) [1]: 7680

B8: HW-101 chimeric rabbit-human IgG1 LA/LA/PG (antibody, V domains shown)
VH: QEQLVESGGRLVTPGTPLTLTCKASGFSLGKYDMSWVRQAPGKGLEWIGTIYAGSGSTWYASWAKGRFTISKTSTTVDLKMTSLTTEDTATYFCARDFLGVNSIWGPGTLVTISS
VL: SFVLTQPASVQVNLGQTVSLTCTADTLSRSYASWYQQKPDQAPVLLIHRDTSRPSGVPDRFSGSNSGNTATLTISGAQAGDEADYYCATSDGSGSNFHFVFGGGTQLTVTG
notes: Fc-silenced (L234A/L235A/P329G) IgG1, lambda; Alexa Fluor 647-labeled in single-step flow cytometry; Cluster C-97
ELISA Absorbance (405 nm-570 nm) (HHLA2 (B7-H7)): 0.069

B9: HW-1 chimeric rabbit-human IgG1 LA/LA/PG (antibody, V domains shown)
VH: QSLEESGGGLFKPTDTLTLTCTASGFSLGSSYAISWVRQAPGKELEWIGTIDSGRAYYARWAKSRSTITRNTNENTVTLKMTSLTAADTATYFCARDLIPTYSQDIWGPGTLVTISS
VL: SFVLTQPASVQVNLGQTVSLTCTADTLSRRYASWYQQKPGQAPVLLIYRDTSRPSGVPDRFSGSSSGNTATLTISGAQAGDEADYYCATSDGSGNSYQYVFGGGTQLTVTS
notes: Fc-silenced (L234A/L235A/P329G) IgG1, lambda; Alexa Fluor 647-labeled in single-step flow cytometry; Prototype of cluster C-1
antibody-bound positive cells (%) (PTPRG on U266 cells): 84.4% | ELISA Absorbance (405 nm-570 nm) (HHLA2 (B7-H7)): 0.075 | mAb binding (MFI) [1]: 16000

B10: TH9-0022 (antibody, human IgG1, kappa, L234A L235A, V domains shown)
VH: QSLEESGGRLVTPGTPLTLTCTVSGFSLSSYAMNWVRQAPGKGLEWIGIINSYGSTYYASWAKGRFTISKTSTTVDLKITSPTTEDTATYFCARVTYDSYGYGYAPYGMDLWGPGTLVTVSS
VL: LVMTQTPSSTSNAVGGTVTIKCQASQSIGNVLAWYQQKPGQPPKLLIYAASTLASGVPSRVGGSRSGTEYTLTISGVQREDAATYYCLGSDSDSDIAFGGGTELEILR
notes: also called TH9-022; negative control
ELISA Absorbance (405 nm-570 nm) (HHLA2 (B7-H7)): 0.086 | mAb binding (MFI) [1]: 483

B11: TH9-0022 (antibody, human IgG1, kappa, L234A L235A, V domains shown)
VH: QSLEESGGRLVTPGTPLTLTCTVSGFSLSSYAMNWVRQAPGKGLEWIGIINSYGSTYYASWAKGRFTISKTSTTVDLKITSPTTEDTATYFCARVTYDSYGYGYAPYGMDLWGPGTLVTVSS
VL: LVMTQTPSSTSNAVGGTVTIKCQASQSIGNVLAWYQQKPGQPPKLLIYAASTLASGVPSRVGGSRSGTEYTLTISGVQREDAATYYCLGSDSDSDIAFGGGTELEILR
notes: also called TH9-022; negative control IgG1
antibody-bound positive cells (%) (PTPRG on U266 cells): 6.5%

Source: patent publication US20260049134A1 (UNIVERSITY OF FLORIDA RESEARCH FOUNDATION, published 2026)
